Data on two variants can be found in IntAct's records for PubMed 21282611.

B1: WD-40 repeat-containing protein MSI4 (Arabidopsis thaliana (Mouse-ear cress)), O22607 (parent)
chain: MESDEAAAVSPQATTPSGGTGASGPKKRGRKPKTKEDSQTPSSQQQSDVKMKESGKKTQQSPSVDEKYSQWKGLVPILYDWLANHNLVWPSLSCRWGPQLEQATYKNRQRLYLSEQTDGSVPNTLVIANCEVVKPRVAAAEHISQFNEEARSPFVKKYKTIIHPGEVNRIRELPQNSKIVATHTDSPDVLIWDVETQPNRHAVLGAANSRPDLILTGHQDNAEFALAMCPTEPFVLSGGKDKSVVLWSIQDHITTIGTDSKSSGSIIKQTGEGTDKNESPTVGPRGVYHGHEDTVEDVAFSPTSAQEFCSVGDDSCLILWDARTGTNPVTKVEKAHDADLHCVDWNPHDDNLILTGSADNTVRLFDRRKLTANGVGSPIYKFEGHKAAVLCVQWSPDKSSVFGSSAEDGLLNIWDYDRVSKKSDRAAKSPAGLFFQHAGHRDKVVDFHWNASDPWTIVSVSDDCETTGGGGTLQIWRMSDLIYRPEEEVVAELEKFKSHVMTCASKP
partner: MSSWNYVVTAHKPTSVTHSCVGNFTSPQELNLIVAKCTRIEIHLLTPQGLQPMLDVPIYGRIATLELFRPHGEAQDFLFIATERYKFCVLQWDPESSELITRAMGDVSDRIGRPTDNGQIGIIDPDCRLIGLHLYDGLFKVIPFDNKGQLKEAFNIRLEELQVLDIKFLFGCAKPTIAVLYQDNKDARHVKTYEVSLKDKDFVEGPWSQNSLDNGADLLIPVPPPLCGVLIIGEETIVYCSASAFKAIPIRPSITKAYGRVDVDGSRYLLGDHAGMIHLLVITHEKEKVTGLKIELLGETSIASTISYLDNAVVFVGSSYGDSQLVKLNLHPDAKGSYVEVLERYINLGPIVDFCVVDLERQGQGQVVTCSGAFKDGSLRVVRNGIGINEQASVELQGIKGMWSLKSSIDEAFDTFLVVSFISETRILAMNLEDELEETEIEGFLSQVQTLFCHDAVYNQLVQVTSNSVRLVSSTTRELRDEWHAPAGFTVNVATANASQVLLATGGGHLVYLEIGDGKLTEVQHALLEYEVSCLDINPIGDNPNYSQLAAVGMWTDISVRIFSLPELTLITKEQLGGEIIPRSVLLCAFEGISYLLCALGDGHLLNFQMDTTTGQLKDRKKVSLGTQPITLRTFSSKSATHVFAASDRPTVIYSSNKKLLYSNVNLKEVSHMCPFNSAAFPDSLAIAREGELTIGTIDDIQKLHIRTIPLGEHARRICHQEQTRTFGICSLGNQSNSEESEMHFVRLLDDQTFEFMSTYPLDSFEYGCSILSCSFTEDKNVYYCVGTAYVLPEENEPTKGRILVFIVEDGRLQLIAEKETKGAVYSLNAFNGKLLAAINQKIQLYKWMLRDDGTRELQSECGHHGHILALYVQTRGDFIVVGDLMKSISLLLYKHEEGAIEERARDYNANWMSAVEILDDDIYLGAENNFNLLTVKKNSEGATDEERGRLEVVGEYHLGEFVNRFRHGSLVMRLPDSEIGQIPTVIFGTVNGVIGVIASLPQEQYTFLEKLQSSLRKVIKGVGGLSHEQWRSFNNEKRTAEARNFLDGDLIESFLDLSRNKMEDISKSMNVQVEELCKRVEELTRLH
B2: WD-40 repeat-containing protein MSI4 (Arabidopsis thaliana (Mouse-ear cress)), O22607 (parent)
chain: B1 chain
partner: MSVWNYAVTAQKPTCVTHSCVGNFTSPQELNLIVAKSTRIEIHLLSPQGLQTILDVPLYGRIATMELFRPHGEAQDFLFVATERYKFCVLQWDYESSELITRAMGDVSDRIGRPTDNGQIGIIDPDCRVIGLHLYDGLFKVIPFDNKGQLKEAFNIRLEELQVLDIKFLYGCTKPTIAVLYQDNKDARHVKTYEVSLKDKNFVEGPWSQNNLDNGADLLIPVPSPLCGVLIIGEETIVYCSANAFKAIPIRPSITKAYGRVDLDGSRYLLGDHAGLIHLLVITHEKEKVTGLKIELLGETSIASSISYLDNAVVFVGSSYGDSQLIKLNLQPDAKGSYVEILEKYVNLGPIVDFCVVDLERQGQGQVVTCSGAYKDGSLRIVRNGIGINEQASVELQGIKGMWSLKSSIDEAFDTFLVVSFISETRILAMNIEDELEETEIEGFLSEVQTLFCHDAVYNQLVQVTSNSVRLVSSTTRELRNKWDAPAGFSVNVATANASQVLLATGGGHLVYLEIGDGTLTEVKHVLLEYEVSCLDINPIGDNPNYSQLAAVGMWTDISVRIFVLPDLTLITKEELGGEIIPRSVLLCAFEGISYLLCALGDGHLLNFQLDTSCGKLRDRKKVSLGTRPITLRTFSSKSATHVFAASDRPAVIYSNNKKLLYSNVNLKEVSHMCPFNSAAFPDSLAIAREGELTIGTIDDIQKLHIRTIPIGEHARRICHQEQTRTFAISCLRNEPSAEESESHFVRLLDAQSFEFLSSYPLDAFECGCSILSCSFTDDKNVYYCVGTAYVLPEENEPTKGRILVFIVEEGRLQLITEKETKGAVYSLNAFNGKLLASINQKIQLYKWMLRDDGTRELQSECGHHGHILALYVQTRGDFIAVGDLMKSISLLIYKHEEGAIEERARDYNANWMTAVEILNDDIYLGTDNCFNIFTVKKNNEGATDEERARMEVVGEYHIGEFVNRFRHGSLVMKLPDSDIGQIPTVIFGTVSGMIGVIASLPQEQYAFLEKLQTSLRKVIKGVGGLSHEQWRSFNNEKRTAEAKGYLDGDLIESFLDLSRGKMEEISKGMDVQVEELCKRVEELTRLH

The variants in one experiment derive from B1. The conditions noted are these: with ddb1a_arath DDB1A.
As to MESDEAAAVSPQATTPSGGTGASGPKKRGRKPKTKEDSQTPSSQQQSDVKMKESGKKTQQSPSVDEKYSQWKGLVPILYDWLANHNLVWPSLSCRWGPQLEQATYKNRQRLYLSEQTDGSVPNTLVIANCEVVKPRVAAAEHISQFNEEARSPFVKKYKTIIHPGEVNRIRELPQNSKIVATHTDSPDVLIWDVETQPNRHAVLGAANSRPDLILTGHQDNAEFALAMCPTEPFVLSGGKDKSVVLWSIQDHITTIGTDSKSSGSIIKQTGEGTDKNESPTVGPRGVYHGHEDTVEDVAFSPTSAQEFCSVGDDSCLILWDAHTGTNPVTKVEKAHDADLHCVDWNPHDDNLILTGSADNTVRLFDRRKLTANGVGSPIYKFEGHKAAVLCVQWSPDKSSVFGSSAEDGLLNIWDYDRVSKKSDRAAKSPAGLFFQHAGHRDKVVDFHWNASDPWTIVSVSDDCETTGGGGTLQIWRMSDLIYRPEEEVVAELEKFKSHVMTCASKP [R323H], the “effect of a mutation on the interaction” value was “decreasing interaction strength”.

Variants of B2 are the subject of the next experiment. The conditions noted are these: with ddb1b_arath DDB1B.
For the variant MESDEAAAVSPQATTPSGGTGASGPKKRGRKPKTKEDSQTPSSQQQSDVKMKESGKKTQQSPSVDEKYSQWKGLVPILYDWLANHNLVWPSLSCRWGPQLEQATYKNRQRLYLSEQTDGSVPNTLVIANCEVVKPRVAAAEHISQFNEEARSPFVKKYKTIIHPGEVNRIRELPQNSKIVATHTDSPDVLIWDVETQPNRHAVLGAANSRPDLILTGHQDNAEFALAMCPTEPFVLSGGKDKSVVLWSIQDHITTIGTDSKSSGSIIKQTGEGTDKNESPTVGPRGVYHGHEDTVEDVAFSPTSAQEFCSVGDDSCLILWDAHTGTNPVTKVEKAHDADLHCVDWNPHDDNLILTGSADNTVRLFDRRKLTANGVGSPIYKFEGHKAAVLCVQWSPDKSSVFGSSAEDGLLNIWDYDRVSKKSDRAAKSPAGLFFQHAGHRDKVVDFHWNASDPWTIVSVSDDCETTGGGGTLQIWRMSDLIYRPEEEVVAELEKFKSHVMTCASKP [R323H], the “effect of a mutation on the interaction” value is listed as “decreasing interaction strength”.
